From the nanobody polyreactivity screen of Harvey et al. (2022)

Experiment: yeast display, Sf9 membrane polyspecificity reagent, FACS + sequencing; frameworks hold sequencing errors
In short: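 Using colony PCR, genes from sorted yeast display clones were amplified, then sequenced on MiSeq at 2 × 250 and filtered by CDR length. The clones had been stained with 10% biotinylated, detergent-solubilized Sf9 membrane reagent for 1 hour at 4 °C and sorted by FACS into low and high (top ~1%) gates on anti-HA and streptavidin fluorescence. Polyreactivity labels come from the gate of origin.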

Sequence	polyreactivity (PSR sort gate)
QVQLVESGGGLVQAGGSLRLSCAASGITFHRYAMGWYRQAPGKERELVAAITKRGGSTNYADSVKGRFTISRDNAKNTVYLQMNSLKPEDTAVYYCNARSTWPSGRYAHYRRYYYWGQGTQVTVSS	high polyreactivity
QVQLVESGGGLVQAGGSLRLSCAASGITFHWYAMGWYRQAPGKERELVAAITSSGDSTFYADSVKGRFTISRDNAKNSVYLQMNSLKPEDTAVYYCAVDVYVGYWGRLYYWGQGTQVTVSS	low polyreactivity
QVQLVESGGGLVQAGGSLRLSCAASGITFIPNAMGWYRQAPGKERELVAAISISGGRTYYADSVKGRFTISRDNAKNTVYLQMNSLKPEVTAVYYCAVDSWSRVQGWLAHNYDYWGQGTQVTVSS	low polyreactivity
QVQLVESGGGLVQAGGSLRLSCAASGITFIRYAMGWYRQAPGKERELVAAIDWDGSSTYYADSVKGRFTISRDNAKNTGYLQMNSLKPEDTSVYYCNTDYTGPDGTDDYDYWGQGTQVTVSS	low polyreactivity
QVQLVESGGGLVQAGGSLRLSCAASGITFIRYAMGWYRQAPGKERELVAVITRSGGRTYYADSVKGRFTISRDNAKNTVYLQMNILKPEDTAVYYCAARAYGYDEYEYWGQGTQVTVSS	high polyreactivity
QVQLVESGGGLVQAGGSLRLSCAASGITFIYYAMGSYRQAPGKERELVAAISKSGGRTYYADSVKGRFTISRDNAKNTVYLQMNSLKPEDSAVYYCNKLVGDDTSLYDYWGQGTQVTVSS	high polyreactivity
QVQLVESGGGLVQAGGSLRLSCAASGITFIYYMGWYRQAPGKERELVAAITWSGGSTYYADSVKGRFTISRDNAKNTVLLQMNSLKPVDNAVYYCAAVRRAEEYDYWGQGTQVTVSS	low polyreactivity
QVQLVESGGGLVQAGGSLRLSCAASGITFKANAMGWYRQAPGKERELVAAIRQNGGDTYYADSVKGRFTISRDNAKNTVYLQMNSLKPEDTAVYYCNARLRGAGGYTFYYWGQGTQVTVSS	high polyreactivity
QVQLVESGGGLVQAGGSLRLSCAASGITFKGYTMGWYRQAPGTERELVATISRGGRTYADSVKGRFTISRDNAKNTVYLQMNSLKPEDTAVYYCAADKYWAQNDYWGQGTQVTVSS	low polyreactivity
QVQLVESGGGLVQAGGSLRLSCAASGITFKSYDMGWYRQAPGKERELVAAITSGVSTHYADSVKGRFTISRDNAKNTVYLQMNSLKPEDTAVYYCAADYTWYYPYWIMDYWGQGTQVTVSS	low polyreactivity
QVQLVESGGGLVQAGGSLRLSCAASGITFKWNDMGWYRQAPGKEREFVAAITGSTGSTFYAGSVKGRFTISRDNAKNTVYLQMNSLKPEDTAVYYCAAGPWFYYWGQGTQVTVSS	low polyreactivity
QVQLVESGGGLVQAGGSLRLSCAASGITFKYYGMGWYRQAPGKERELVAAISWSGASTYYADSVKRRFTISRDNAKNTVYLQMNSLKPEDTAVYYCAAVRRRGQRGRLDYWGQGTQVTVSS	high polyreactivity
QVQLVESGGGLVQAGGSLRLSCAASGITFKYYVMGWYRQAPGKERELVAAISYDGGSTYYADSVKGRFTISRDNAKNTVYLQMNSLKPEDTAVYYCAAPVWIDGDESGYEYDYWGQGTQVTVSS	low polyreactivity
QVQLVESGGGLVQAGGSLRLSCAASGITFLAYAMGWYRQAPGKERELVAGISKSGGNTYYADSVKGRFTISRDNAKNTVYLQMNSLKPEDTAVYYCAARYRLTYFDANYRYGYWGQGTQVTVSS	high polyreactivity
QVQLVESGGGLVQAGGSLRLSCAASGITFLPYAMGWYRPAPGKERELVAAITRGGGSTYADSVKGRFTISRDNAKNTVYLQMYSLKPEDTAVYYCNAKGRGWTAQYDYWGQGTQVTVSS	low polyreactivity
QVQLVESGGGLVQAGGSLRLSCAASGITFLSNAMGWYRQAPGKERELVAAIDWRGDSTYYADSVKGRFTISRDNAKNTGYLQMNRLKPEDTAVYYCNADISGSGQWDGYDYWGQGTQVTVSS	low polyreactivity
QVQLVESGGGLVQAGGSLRLSCAASGITFNGYVMGWYRQAPGKERELVAAITSGGSTNYADSVKGRFTISRDNAKNTVYLQMNSLKPEDTAVYYCAARYKAYWQLYDYWGQGTQVTVSS	high polyreactivity
